Results reported in patent US12048734B2, “Bioactive peptides and methods of use thereof” (OP-T LLC, priority 2020, dated 2024).

System: CD4loCD40+ T cells (Th40 cells)
Assay: Cytokine production of CD40- or CD3-stimulated Th40 cells with galectin-9
Assay type: cell-based, NOD mice
Conditions: 3 days; indicated concentrations of galectin-9
Experimental: CD4loCD40+ T cells (Th40 cells) were sorted from 7-20 weeks old female NOD spleens. Cells were either isotype treated, CD40- or CD3-stimulated in the absence/presence of indicated concentrations of galectin-9 (gal-9; mg/ml) for 3 days then cytokines were measured. Bar graphs depict means with SEM. Asterisks denote significant differences determined by one-way Anova; *-P between 0.01 and 0.05; **-P, 0.01; ***-P, 0.001. Measurements were done on four individual mice of different ages.

B1: galectin-9: galectin-9 protein added to Th40 cell cultures (protein, UniProt O00182 1-355, looked up)
Galectin-9: MAFSGSQAPYLSPAVPFSGTIQGGLQDGLQITVNGTVLSSSGTRFAVNFQTGFSGNDIAFHFNPRFEDGGYVVCNTRQNGSWGPEERKTHMPFQKGMPFDLCFLVQSSDFKVMVNGILFVQYFHRVPFHRVDTISVNGSVQLSYISFQNPRTVPVQPAFSTVPFSQPVCFPPRPRGRRQKPPGVWPANPAPITQTVIHTVQSAPGQMFSTPAIPPMMYPHPAYPMPFITTILGGLYPSKSILLSGTVLPSAQRFHINLCSGNHIAFHLNPRFDENAVVRNTQIDNSWGSEERSLPRKMPFVRGQSFSVWILCEAHCLKVAVDGQHLFEYYHRLRNLPTINRLEVGGDIQLTHVQT
- CD40 and CD3 induced cytokine production level: alters the production level
